Experimental data as given in patent publication US20070254831A1 (published 2007).
Numbered stars: 1 amine (or outer) side, 2 acyl side, 3 side chain; on linkers, the order of the positions; unused ones are H or OH. Bridge positions count the residues as written; N and C are the ends. Square brackets hold non-standard residues; d marks the D form. Ends that are not written are not given here. X2 = (3R)‑3‑amino‑1‑carboxymethyl‑valerolactam, O=C1[C@H](N[*:1])CCCN1CC(=O)[*:2]; NMeL = CN[C@@H](CC(C)C)C(=O)O; Pen = CC(C)(S)[C@H](N)C(=O)O; NMeA = CN[C@@H](C)C(=O)O

B1: Peptide No. 182 (peptide)
peptide: RFVTGHFXLYPA
modifications: X at 8 = 3-amino-2-oxo-1-piperidine-acetic acid (drawing CHEM-US-00094); linear; C-terminal amide
B2: Peptide No. 107 (peptide)
peptide: QRFDTGHFGGLYKNGP-NH2
modifications: lactam 4-13; N-terminus assumed
SMILES: CC(C)C[C@@H]1NC(=O)CNC(=O)CNC(=O)[C@H](Cc2ccccc2)NC(=O)[C@H](Cc2c[nH]cn2)NC(=O)CNC(=O)[C@H]([C@@H](C)O)NC(=O)[C@@H](NC(=O)[C@H](Cc2ccccc2)NC(=O)[C@H](CCCNC(=N)N)NC(=O)[C@@H](N)CCC(N)=O)CC(=O)NCCCC[C@@H](C(=O)N[C@@H](CC(N)=O)C(=O)NCC(=O)N2CCC[C@H]2C(N)=O)NC(=O)[C@H](Cc2ccc(O)cc2)NC1=O
B3: Peptide No. 127 (peptide)
peptide: QRFDTGHFGGLYPKN-NH2
modifications: lactam 4-14; N-terminus assumed
SMILES: CC(C)C[C@@H]1NC(=O)CNC(=O)CNC(=O)[C@H](Cc2ccccc2)NC(=O)[C@H](Cc2c[nH]cn2)NC(=O)CNC(=O)[C@H]([C@@H](C)O)NC(=O)[C@@H](NC(=O)[C@H](Cc2ccccc2)NC(=O)[C@H](CCCNC(=N)N)NC(=O)[C@@H](N)CCC(N)=O)CC(=O)NCCCC[C@@H](C(=O)N[C@@H](CC(N)=O)C(N)=O)NC(=O)[C@@H]2CCCN2C(=O)[C@H](Cc2ccc(O)cc2)NC1=O
B4: Peptide No. 178 (peptide)
peptide: RFXTGHFXLYPC
modifications: Pen at 3; X at 8 = 3-amino-2-oxo-1-piperidine-acetic acid (drawing CHEM-US-00080); disulfide; C-terminal amide
B5: Peptide No. 179 (peptide)
peptide: RFXTGHFXLYPC
modifications: Pen at 3; X at 8 = 3-amino-2-oxo-1-piperidine-acetic acid (drawing CHEM-US-00081); disulfide; C-terminal amide
B6: Peptide No. 205 (peptide)
peptide: RFXTGHFXLYPC
modifications: Pen at 3; X at 8 = 3(S)-3-amino-2-oxo-1-azepine acetic acid; disulfide; C-terminal amide
B7: Peptide No. 228 (peptide)
peptide: RF[Pen][NMeA]GHF[X2][NMeL]YPC-NH2
modifications: disulfide 3-12; N-terminus assumed
SMILES: CC(C)C[C@H]1C(=O)N[C@@H](Cc2ccc(O)cc2)C(=O)N2CCC[C@H]2C(=O)N[C@H](C(N)=O)CSSC(C)(C)[C@H](NC(=O)[C@H](Cc2ccccc2)NC(=O)[C@@H](N)CCCNC(=N)N)C(=O)N(C)[C@@H](C)C(=O)NCC(=O)N[C@@H](Cc2c[nH]cn2)C(=O)N[C@@H](Cc2ccccc2)C(=O)N[C@@H]2CCCN(CC(=O)N1C)C2=O
B8: Peptide No. 197 (peptide)
peptide: RFXTGHFXLYPC
modifications: Pen at 3; X at 8 = 5,5-bicyclic dipeptide mimic (drawing CHEM-US-00085); disulfide; C-terminal amide
B9: Peptide No. 169 (peptide)
peptide: QRFVTGHFG[dP]LYPINGP-NH2
modifications: N-terminus assumed
SMILES: CC[C@H](C)[C@H](NC(=O)[C@@H]1CCCN1C(=O)[C@H](Cc1ccc(O)cc1)NC(=O)[C@H](CC(C)C)NC(=O)[C@H]1CCCN1C(=O)CNC(=O)[C@H](Cc1ccccc1)NC(=O)[C@H](Cc1c[nH]cn1)NC(=O)CNC(=O)[C@@H](NC(=O)[C@@H](NC(=O)[C@H](Cc1ccccc1)NC(=O)[C@H](CCCNC(=N)N)NC(=O)[C@@H](N)CCC(N)=O)C(C)C)[C@@H](C)O)C(=O)N[C@@H](CC(N)=O)C(=O)NCC(=O)N1CCC[C@H]1C(N)=O
B10: Peptide No. 211 (peptide)
peptide: FVTGHFG[dP]WYPA-NH2
modifications: N-terminus assumed
SMILES: CC(C)[C@H](NC(=O)[C@@H](N)Cc1ccccc1)C(=O)N[C@H](C(=O)NCC(=O)N[C@@H](Cc1c[nH]cn1)C(=O)N[C@@H](Cc1ccccc1)C(=O)NCC(=O)N1CCC[C@@H]1C(=O)N[C@@H](Cc1c[nH]c2ccccc12)C(=O)N[C@@H](Cc1ccc(O)cc1)C(=O)N1CCC[C@H]1C(=O)N[C@@H](C)C(N)=O)[C@@H](C)O
B11: Peptide No. 246 (peptide)
peptide: RFVTGHFG[dP]WYPA-NH2
modifications: N-terminus assumed
SMILES: CC(C)[C@H](NC(=O)[C@H](Cc1ccccc1)NC(=O)[C@@H](N)CCCNC(=N)N)C(=O)N[C@H](C(=O)NCC(=O)N[C@@H](Cc1c[nH]cn1)C(=O)N[C@@H](Cc1ccccc1)C(=O)NCC(=O)N1CCC[C@@H]1C(=O)N[C@@H](Cc1c[nH]c2ccccc12)C(=O)N[C@@H](Cc1ccc(O)cc1)C(=O)N1CCC[C@H]1C(=O)N[C@@H](C)C(N)=O)[C@@H](C)O
B12: Peptide No. 201 (peptide)
peptide: QRFXTGHFGGLYPCNGP
modifications: Pen at 4; intrachain disulfide; C-terminal amide; N-termini joined by ethylene glycol-bis(succinic acid) linker
notes: N-terminally linked dimer
B13: Peptide No. 279 (peptide)
peptide: RFXTGHFGGLYPC
modifications: Pen at 3; Sar at 9; NMeLeu at 10; intrachain disulfide; C-terminal amide; N-termini joined by Bis-dPEG6 diacid linker
notes: N-terminally linked dimer
B14: Peptide No. 280 (peptide)
peptide: RFXTGHFGGLYPC
modifications: not fully specified; Pen at 3; Sar at 9; NMeLeu at 10; intrachain disulfide; C-termini joined on the two amines of a branching Lys
notes: C-terminally linked dimer
B15: Peptide No. 101 (peptide)
peptide: QRF[Pen]TGHFGGIYPCNGP-NH2
modifications: disulfide 4-14; N-terminus assumed
SMILES: CC[C@H](C)[C@@H]1NC(=O)CNC(=O)CNC(=O)[C@H](Cc2ccccc2)NC(=O)[C@H](Cc2c[nH]cn2)NC(=O)CNC(=O)[C@H]([C@@H](C)O)NC(=O)[C@@H](NC(=O)[C@H](Cc2ccccc2)NC(=O)[C@H](CCCNC(=N)N)NC(=O)[C@@H](N)CCC(N)=O)C(C)(C)SSC[C@@H](C(=O)N[C@@H](CC(N)=O)C(=O)NCC(=O)N2CCC[C@H]2C(N)=O)NC(=O)[C@@H]2CCCN2C(=O)[C@H](Cc2ccc(O)cc2)NC1=O
B16: Peptide No. 115 (peptide)
peptide: QRF[Pen]TGHFGGFYPCNGP-NH2
modifications: disulfide 4-14; N-terminus assumed
SMILES: C[C@@H](O)[C@@H]1NC(=O)[C@@H](NC(=O)[C@H](Cc2ccccc2)NC(=O)[C@H](CCCNC(=N)N)NC(=O)[C@@H](N)CCC(N)=O)C(C)(C)SSC[C@@H](C(=O)N[C@@H](CC(N)=O)C(=O)NCC(=O)N2CCC[C@H]2C(N)=O)NC(=O)[C@@H]2CCCN2C(=O)[C@H](Cc2ccc(O)cc2)NC(=O)[C@H](Cc2ccccc2)NC(=O)CNC(=O)CNC(=O)[C@H](Cc2ccccc2)NC(=O)[C@H](Cc2c[nH]cn2)NC(=O)CNC1=O

molecular target: T1, soluble human FcRn (human, UniProt P55899 24-297; P61769 21-119, biotinylated (Sulfo-NHS-LC-Biotin) in the ELISA; amine-coupled to CM5 chip in SPR); assay: ELISA, competitor human IgG
T1 construct: also called shFcRn; biotinylated shFcRn
Procedure: (§1) The wells were coated with 100 μl/well of 1 μg/ml biotinylated-shFcRn in Buffer A. The plate was sealed and incubated at 37° C. for 2 hours. Afterwards, the plate washed with 200 μl/well of Buffer B (Buffer B: 100 mM MES pH 6, 150 mM NaCl, 0.5% BSA IgG-free (Jackson ImmunoResearch, West Grove, Pa.), 0.05% Tween-20). […] To allow for mixing, the plate was rocked for 2 minutes, sealed and incubated at 37° C. for 2 hours. […] The plate was covered, incubated for 30 minutes at room temperature and washed 4 times with 200 μl/well of ice-cold buffer B. SureBlue TMB substrate solution (100 μl/well, KPL, Gaithersburg, Md.) was added and the plate was allowed to incubate at room temperature until color developed, which took 5 to 10 minutes. Once color developed, 100 μl/well of TMB stop solution (KPL, Gaithersburg, Md.) was added and the absorbance was measured at 450 nm. The data was plotted as absorbance vs. peptide concentration to derive the inhibitory concentration 50% (IC₅₀) values.

IC50 [µM]	Binder
38	B1

molecular target: T1, soluble human FcRn; assay: ELISA, competitor human IgG; remark: another data set of the same source
Procedure: as §1

IC50 [µM]	Binder
30	QRFXTGHFGGLYPENGP (Orn at 4; side-chain lactam bridge Orn 4-Glu 14; C-terminal amide) [Peptide No. 131]
> 125	B2
7.6	B3

molecular target: T1, soluble human FcRn; assay: ELISA, competitor human IgG; remark: another data set of the same source
Procedure: as §1

IC50 [µM]	Binder
0.66	B4
7.2	B5
0.64	B6
1.1	B7

molecular target: T1, soluble human FcRn; assay: SPR, pH 6
Procedure: (§2) The following steps were performed to cross-link soluble human or cynomolgus FcRn to the dextran surface of a CM5 sensor chip (Biacore AB, Uppsala, Sweden) by an amine coupling reaction involving 1-ethyl-(3-dimethylaminopropyl)-carbodiimide hydrochloride (EDC) (Biacore AB, Uppsala, Sweden) and N-hydroxysuccinimide (NHS) (Biacore AB, Uppsala, Sweden) as recommended by Biacore (BIAapplications Handbook, version AB, section 4.2, Biacore AB, Uppsala, Sweden). […] Residual sites on the FcRn flow cell were blocked with 1 M ethanolamine hydrochloride pH 8.5 (Biacore AB, Uppsala, Sweden). A control flow cell was blocked with ethanolamine for reference subtraction. For analysis of the monomeric peptides, FcRn was coated to a final density of 4000-5000 response units (RU). For analysis of the peptide dimers, FcRn was coated to a density of 2000-2500 RU. All SPR measurements were performed using a BIACORE 3000 Instrument (Biacore AB Uppsala, Sweden). For measurements done at either pH 6 or pH 7.4, experiments were performed in 50 mM phosphate, 100 mM sodium chloride, 0.01% surfactant P20 (Biacore AB, Uppsala, Sweden).
(§3) Ten, 2-fold dilutions of the peptide were injected over the FcRn-CM5 chip at a rate of 20 μl/min for 2 min. The peptide was dissociated from the chip for 2.5 minutes with buffer. Any remaining peptide was removed from the chip with a 30 second injection of HBS-P buffer (Biacore AB, Uppsala, Sweden) at a rate of 30 μl/min. Sensorgrams were generated and analyzed using BiaEval software version 3.1 (Biacore AB, Uppsala, Sweden). The equilibrium RU observed for each injection was plotted against concentration. The equilibrium KD values were derived by analysis of the plots using the steady state affinity model included in the BiaEval software.

Kd [µM]	Binder
0.16	B4
0.67	B5
0.99	B8
0.103	B6
0.145	B7

molecular target: T1, soluble human FcRn; assay: ELISA, competitor human IgG; remark: another data set of the same source
Procedure: as §1

IC50 [µM]	Binder
> 125	QRFSTGHFGGLYPSNGP-NH2 [Peptide No. 71]
72	B9
100	B10
60	B11

molecular target: T1, soluble human FcRn; assay: ELISA, competitor human IgG; remark: another data set of the same source
Procedure: as §1

IC50 [µM]	Binder
0.026	B12
0.007	B13
0.025	B14

molecular target: T1, soluble human FcRn; assay: SPR, pH 6; remark: another data set of the same source
Procedure: as §2, §3

Kd [µM]	Binder
230	QRFSTGHFGGLYPSNGP-NH2 [Peptide No. 71]
15	B9
8	B10
3.6	B11

molecular target: T1, soluble human FcRn; assay: SPR, pH 6; remark: another data set of the same source
Procedure: as §2, §3

Kd [µM]	Binder
0.34	B15
0.4	B16
0.14	RFXTGHFGGWYPC (Pen at 3; disulfide; C-terminal amide) [Peptide No. 237]

molecular target: T1, soluble human FcRn; assay: ELISA, competitor human IgG; remark: another data set of the same source
Procedure: as §1

IC50 [µM]	Binder
239	CTGHFGGLYPCNGP-NH2 (disulfide 1-11 (inferred)) [SEQ ID NO:17]
110	CTGHFGGLYPC-NH2 (disulfide 1-11 (inferred)) [SEQ ID NO:19]
> 250	TGHFGGLYP-NH2 [SEQ ID NO:20]
67	FCTGHFGGLYPCNGP-NH2 (disulfide 2-12 (inferred)) [SEQ ID NO:22]

molecular target: T1, soluble human FcRn; assay: ELISA, competitor human IgG; remark: another data set of the same source
Procedure: as §1

IC50 [µM]	Binder
3.4	B15
4.1	B16
1	QRFXTGHFGGWYPCNGP (Pen at 4; Sar at 10; disulfide; C-terminal amide) [Peptide No. 238]
2.8	RFXTGHFGGWYPC (Pen at 3; disulfide; C-terminal amide) [Peptide No. 237]

molecular target: T1, soluble human FcRn; assay: SPR, pH 6; remark: another data set of the same source
Procedure: as §2, §3

Kd [µM]	Binder
34	CTGHFGGLYPCNGP-NH2 (disulfide 1-11 (inferred)) [SEQ ID NO:17]
20	CTGHFGGLYPC-NH2 (disulfide 1-11 (inferred)) [SEQ ID NO:19]
11	FCTGHFGGLYPCNGP-NH2 (disulfide 2-12 (inferred)) [SEQ ID NO:22]
6.1	QRFCTGHFGGLYPCN-NH2 (disulfide 4-14 (inferred)) [SEQ ID NO:24]

molecular target: T1, soluble human FcRn; assay: SPR, pH 7.4
Procedure: as §2, §3

Kd [µM]	Binder
26	QRFCTGHFGGLYPC-NH2 (disulfide 4-14 (inferred)) [SEQ ID NO:18]
320	CTGHFGGLYPC-NH2 (disulfide 1-11 (inferred)) [SEQ ID NO:19]
73	QRFCTGHFGGLYPCN-NH2 (disulfide 4-14 (inferred)) [SEQ ID NO:24]
